Patent publication US20190077860A1 (EISAI R AND D MANAGEMENT, published 2019)

T1: human EphA10 extracellular region-SEAP-His protein (human, UniProt Q5JZY3 34-565)
T1 construct: extracellular domain; also called hEphA10-SEAP-His
T1 sequence (looked up): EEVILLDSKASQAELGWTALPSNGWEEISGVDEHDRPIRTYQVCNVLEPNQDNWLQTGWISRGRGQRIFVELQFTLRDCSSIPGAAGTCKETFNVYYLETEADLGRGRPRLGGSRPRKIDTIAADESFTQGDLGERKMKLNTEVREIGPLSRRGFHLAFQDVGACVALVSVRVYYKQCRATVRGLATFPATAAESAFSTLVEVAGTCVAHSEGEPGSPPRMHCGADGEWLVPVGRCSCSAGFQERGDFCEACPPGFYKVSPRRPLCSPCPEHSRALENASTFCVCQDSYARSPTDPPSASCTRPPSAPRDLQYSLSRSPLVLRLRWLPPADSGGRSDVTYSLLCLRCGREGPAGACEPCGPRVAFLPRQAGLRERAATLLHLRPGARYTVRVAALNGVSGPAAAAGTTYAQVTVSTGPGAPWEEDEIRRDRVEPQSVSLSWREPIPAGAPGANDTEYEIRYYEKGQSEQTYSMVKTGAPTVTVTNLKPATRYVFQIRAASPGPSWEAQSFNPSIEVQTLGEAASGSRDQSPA

T2: human EphA6 extracellular region-SEAP-His protein (human, UniProt Q9UF33 23-550)
T2 construct: extracellular domain; also called hEphA6-SEAP-His
T2 sequence (looked up): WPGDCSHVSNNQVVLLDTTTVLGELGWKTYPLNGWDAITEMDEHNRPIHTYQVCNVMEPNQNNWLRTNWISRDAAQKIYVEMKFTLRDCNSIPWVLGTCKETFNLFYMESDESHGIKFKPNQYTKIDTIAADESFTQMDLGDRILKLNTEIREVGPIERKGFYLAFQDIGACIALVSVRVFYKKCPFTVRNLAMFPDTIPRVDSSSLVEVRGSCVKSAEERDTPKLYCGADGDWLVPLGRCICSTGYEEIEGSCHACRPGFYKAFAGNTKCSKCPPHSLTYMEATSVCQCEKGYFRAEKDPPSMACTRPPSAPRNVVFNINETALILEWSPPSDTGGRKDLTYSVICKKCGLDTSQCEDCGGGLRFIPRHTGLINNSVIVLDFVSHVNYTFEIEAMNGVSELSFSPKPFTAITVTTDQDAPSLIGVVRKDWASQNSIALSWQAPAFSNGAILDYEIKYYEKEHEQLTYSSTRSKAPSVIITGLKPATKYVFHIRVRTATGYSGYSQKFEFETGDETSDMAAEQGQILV

T3: human EphA3 extracellular region-SEAP-His protein (human, UniProt P29320 21-541)
T3 construct: extracellular domain; also called hEphA3-SEAP-His
T3 sequence (looked up): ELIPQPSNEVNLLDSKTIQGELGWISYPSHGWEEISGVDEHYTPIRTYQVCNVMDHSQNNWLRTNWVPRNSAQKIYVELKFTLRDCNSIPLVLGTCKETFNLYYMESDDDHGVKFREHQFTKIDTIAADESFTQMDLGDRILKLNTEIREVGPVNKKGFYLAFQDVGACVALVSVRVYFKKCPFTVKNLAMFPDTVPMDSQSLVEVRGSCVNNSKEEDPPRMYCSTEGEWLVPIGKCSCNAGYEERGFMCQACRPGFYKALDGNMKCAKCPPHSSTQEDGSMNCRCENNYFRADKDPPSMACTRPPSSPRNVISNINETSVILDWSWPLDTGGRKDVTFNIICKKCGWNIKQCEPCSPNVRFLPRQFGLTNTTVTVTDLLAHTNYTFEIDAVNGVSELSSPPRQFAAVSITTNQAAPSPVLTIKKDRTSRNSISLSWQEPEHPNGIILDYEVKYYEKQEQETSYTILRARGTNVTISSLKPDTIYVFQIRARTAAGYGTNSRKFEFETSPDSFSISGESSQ

T4: human EphB2 extracellular region-SEAP-His protein (human, UniProt P29323 19-543)
T4 construct: extracellular domain; also called hEphB2-SEAP-His
T4 sequence (looked up): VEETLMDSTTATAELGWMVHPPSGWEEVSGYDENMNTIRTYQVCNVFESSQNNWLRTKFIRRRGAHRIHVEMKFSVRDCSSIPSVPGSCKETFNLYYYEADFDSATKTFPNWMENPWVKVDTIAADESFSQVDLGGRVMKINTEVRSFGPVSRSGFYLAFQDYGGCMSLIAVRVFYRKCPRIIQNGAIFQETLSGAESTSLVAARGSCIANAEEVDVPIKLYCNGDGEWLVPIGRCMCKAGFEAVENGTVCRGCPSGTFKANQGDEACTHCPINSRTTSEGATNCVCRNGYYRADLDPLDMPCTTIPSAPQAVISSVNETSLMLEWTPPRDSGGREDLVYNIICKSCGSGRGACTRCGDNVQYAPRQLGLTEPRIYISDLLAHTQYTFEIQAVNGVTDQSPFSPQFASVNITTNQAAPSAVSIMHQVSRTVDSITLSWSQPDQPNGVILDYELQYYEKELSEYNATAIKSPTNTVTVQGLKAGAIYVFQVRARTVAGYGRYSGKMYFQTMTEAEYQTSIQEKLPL


Columns and labels:
Experiment in all cases: ELISA
[1] = target: T1, human EphA10 extracellular …
[2] = target: T2, human EphA6 extracellular …
[3] = target: T3, human EphA3 extracellular …
[4] = target: T4, human EphB2 extracellular …

A450 as % of hEphA4-SEAP-His [1]	A450 as % of hEphA4-SEAP-His [2]	A450 as % of hEphA4-SEAP-His [3]	A450 as % of hEphA4-SEAP-His [4]	Binder
5.6%	7.1%	5.6%	5.6%	humanized antibody No. 137 (antibody, human IgG2, human Ig kappa; also called L2-4/HK4) heavy: QIQLVQSGSELKKPGASVKVSCKASGYTFTDYSMHWVRQAPGQGLKWMGWINTETGEPTYADDFKGRFVFSLDTSVSTAYLQISSLKAEDTAVYYCARIPLYYYGSRYWYFDVWGQGTTVTVSSASTKGPSVFPLAPSSRSTSESTAALGCLVKDYFPEPVTVSWNSGALTSGVHTFPAVLQSSGLYSLSSVVTVPSSNFGTQTYTCNVDHKPSNTKVDKTVERKSCVECPPCPAPPAAAPSVFLFPPKPKDTLMISRTPEVTCVVVDVSHEDPEVQFNWYVDGVEVHNAKTKPREEQFNSTFRVVSVLTVVHQDWLNGKEYKCKVSNKGLPAPIEKTISKTKGQPREPQVYTLPPSREEMTKNQVSLTCLVKGFYPSDIAVEWESNGQPENNYKTTPPMLDSDGSFFLYSKLTVDKSRWQQGNVFSCSVMHEALHNHYTQKSLSLSPG light: EIVMTQSPATLSVSPGERATLSCRASENIYRNLAWYQQKPGQSPRLLIYAATNLADGIPARFSGSGSGTEYTLTISSLQSEDFAVYYCQHFWGTPWTFGQGTKVEIKRTVAAPSVFIFPPSDEQLKSGTASVVCLLNNFYPREAKVQWKVDNALQSGNSQESVTEQDSKDSTYSLSSTLTLSKADYEKHKVYACEVTHQGLSSPVTKSFNRGEC
6.4%	8.6%	6.8%	7%	humanized antibody No. 94 (antibody, human IgG1, kappa, human Ig kappa; also called L2-4/HA2) heavy: QVQLVQSGSELKKPGASVKVSCKASGYTFTDYSMHWVRQAPGQGLKWMGWINTETGEPTYAQGFTGRFVFSLDTSVSTAYLQISSLKAEDTAVYYCARIPLYYYGSRYWYFDVWGQGTTVTVSSASTKGPSVFPLAPSSKSTSGGTAALGCLVKDYFPEPVTVSWNSGALTSGVHTFPAVLQSSGLYSLSSVVTVPSSSLGTQTYICNVNHKPSNTKVDKRVEPKSCDKTHTCPPCPAPPAAAPSVFLFPPKPKDTLMISRTPEVTCVVVDVSHEDPEVQFNWYVDGVEVHNAKTKPREEQFNSTFRVVSVLTVVHQDWLNGKEYKCKVSNKGLPAPIEKTISKTKGQPREPQVYTLPPSREEMTKNQVSLTCLVKGFYPSDIAVEWESNGQPENNYKTTPPMLDSDGSFFLYSKLTVDKSRWQQGNVFSCSVMHEALHNHYTQKSLSLSPG light: EIVMTQSPATLSVSPGERATLSCRASENIYRNLAWYQQKPGQSPRLLIYAATNLADGIPARFSGSGSGTEYTLTISSLQSEDFAVYYCQHFWGTPWTFGQGTKVEIKRTVAAPSVFIFPPSDEQLKSGTASVVCLLNNFYPREAKVQWKVDNALQSGNSQESVTEQDSKDSTYSLSSTLTLSKADYEKHKVYACEVTHQGLSSPVTKSFNRGEC
5.6%	7.4%	5.8%	5.6%	humanized antibody No. 73 (antibody, human IgG1, kappa, human Ig kappa; also called L2-4/HK4) heavy: QIQLVQSGSELKKPGASVKVSCKASGYTFTDYSMHWVRQAPGQGLKWMGWINTETGEPTYADDFKGRFVFSLDTSVSTAYLQISSLKAEDTAVYYCARIPLYYYGSRYWYFDVWGQGTTVTVSSASTKGPSVFPLAPSSKSTSGGTAALGCLVKDYFPEPVTVSWNSGALTSGVHTFPAVLQSSGLYSLSSVVTVPSSSLGTQTYICNVNHKPSNTKVDKRVEPKSCDKTHTCPPCPAPPAAAPSVFLFPPKPKDTLMISRTPEVTCVVVDVSHEDPEVQFNWYVDGVEVHNAKTKPREEQFNSTFRVVSVLTVVHQDWLNGKEYKCKVSNKGLPAPIEKTISKTKGQPREPQVYTLPPSREEMTKNQVSLTCLVKGFYPSDIAVEWESNGQPENNYKTTPPMLDSDGSFFLYSKLTVDKSRWQQGNVFSCSVMHEALHNHYTQKSLSLSPG light: EIVMTQSPATLSVSPGERATLSCRASENIYRNLAWYQQKPGQSPRLLIYAATNLADGIPARFSGSGSGTEYTLTISSLQSEDFAVYYCQHFWGTPWTFGQGTKVEIKRTVAAPSVFIFPPSDEQLKSGTASVVCLLNNFYPREAKVQWKVDNALQSGNSQESVTEQDSKDSTYSLSSTLTLSKADYEKHKVYACEVTHQGLSSPVTKSFNRGEC
4.9%	7.1%	5.1%	5%	humanized antibody No. 93 (antibody, human IgG1, kappa, human Ig kappa; also called L2-4/HA1) heavy: QVQLVQSGSELKKPGASVKVSCKASGYTFTDYSMHWVRQAPGQGLEWMGWINTETGEPTYAQGFTGRFVFSLDTSVSTAYLQISSLKAEDTAVYYCARIPLYYYGSRYWYFDVWGQGTTVTVSSASTKGPSVFPLAPSSKSTSGGTAALGCLVKDYFPEPVTVSWNSGALTSGVHTFPAVLQSSGLYSLSSVVTVPSSSLGTQTYICNVNHKPSNTKVDKRVEPKSCDKTHTCPPCPAPPAAAPSVFLFPPKPKDTLMISRTPEVTCVVVDVSHEDPEVQFNWYVDGVEVHNAKTKPREEQFNSTFRVVSVLTVVHQDWLNGKEYKCKVSNKGLPAPIEKTISKTKGQPREPQVYTLPPSREEMTKNQVSLTCLVKGFYPSDIAVEWESNGQPENNYKTTPPMLDSDGSFFLYSKLTVDKSRWQQGNVFSCSVMHEALHNHYTQKSLSLSPG light: EIVMTQSPATLSVSPGERATLSCRASENIYRNLAWYQQKPGQSPRLLIYAATNLADGIPARFSGSGSGTEYTLTISSLQSEDFAVYYCQHFWGTPWTFGQGTKVEIKRTVAAPSVFIFPPSDEQLKSGTASVVCLLNNFYPREAKVQWKVDNALQSGNSQESVTEQDSKDSTYSLSSTLTLSKADYEKHKVYACEVTHQGLSSPVTKSFNRGEC
5.3%	9.2%	5.6%	5.5%	humanized antibody No. 71 (antibody, human IgG1, kappa, human Ig kappa; also called L2-4/HA4) heavy: QIQLVQSGSELKKPGASVKVSCKASGYTFTDYSMHWVRQAPGQGLKWMGWINTETGEPTYAQGFTGRFVFSLDTSVSTAYLQISSLKAEDTAVYYCARIPLYYYGSRYWYFDVWGQGTTVTVSSASTKGPSVFPLAPSSKSTSGGTAALGCLVKDYFPEPVTVSWNSGALTSGVHTFPAVLQSSGLYSLSSVVTVPSSSLGTQTYICNVNHKPSNTKVDKRVEPKSCDKTHTCPPCPAPPAAAPSVFLFPPKPKDTLMISRTPEVTCVVVDVSHEDPEVQFNWYVDGVEVHNAKTKPREEQFNSTFRVVSVLTVVHQDWLNGKEYKCKVSNKGLPAPIEKTISKTKGQPREPQVYTLPPSREEMTKNQVSLTCLVKGFYPSDIAVEWESNGQPENNYKTTPPMLDSDGSFFLYSKLTVDKSRWQQGNVFSCSVMHEALHNHYTQKSLSLSPG light: EIVMTQSPATLSVSPGERATLSCRASENIYRNLAWYQQKPGQSPRLLIYAATNLADGIPARFSGSGSGTEYTLTISSLQSEDFAVYYCQHFWGTPWTFGQGTKVEIKRTVAAPSVFIFPPSDEQLKSGTASVVCLLNNFYPREAKVQWKVDNALQSGNSQESVTEQDSKDSTYSLSSTLTLSKADYEKHKVYACEVTHQGLSSPVTKSFNRGEC
